Source: PMC10848957

Molecular target: FakA_M, central zinc finger domain of Streptococcus suis FakA (Streptococcus suis serotype 2, strain 05ZYH33)
Test: cross-linking

**Q.** Which stoichiometry N does the source give for “FakA_M, central zinc finger domain of Streptococcus suis FakA (domain or fragment)” here?
**A.** The stoichiometry N was 2.
